Patent US20220220215A1 (CRESCENDO BIOLOGICS, published 2022)
Residue numbers refer to the chain shown, from its start. Numbers in names are those of the source. Values belong to the binder of their own block, whether it stands above or below them.

Assays:
[1] = target: T1, Rhesus CD137-Fc tagged protein (rhesus, UniProt H9Z8K9 24-186); assay: BLI (Octet RED384), CD137-Fc on Protein G sensor, 1:1 model
T1 construct: extracellular domain; The Octet paragraph gives no catalogue number; also called rhCD137-Fc
Protocol: (§1) Binding kinetics of purified monovalent VH molecules were measured on a ForteBio Octet RED 384 instrument. Human and Rhesus CD137-Fc tagged protein was diluted to 5 μg/ml in kinetics buffer (0.05% Tween, 1×PBS) and coupled to Protein G biosensors (ForteBio cat no. 18-5082) via the Fc tag. VH were serially diluted (typically 1:2 dilution series starting with 200 nM, VH at the highest concentration) and binding to the CD137-Fc-coupled Protein G biosensors measured. Binding kinetics were determined from the (blank subtracted) sensor gram trace using 1:1 binding models and ForteBio Octet Data Analysis 9.0 software. Example kinetic and binding affinity data obtained is shown Table 18 (monovalent VH).

[2] = target: T2, human CD137-Fc recombinant protein (Acro Biosystems 41B-H5258) (human, UniProt Q07011 24-186); assay: as above
T2 construct: Bought protein; The Octet paragraph gives no catalogue number for its human CD137-Fc; also called hCD137-Fc; CD137-Fc tagged protein
Protocol: as §1

[3] = target: T3, human CD137 expressed on CHO cells (human, UniProt Q07011 18-255); assay: FMAT/Mirrorball on CHO huCD137 cells
T3 construct: also called CHO huCD137; CHO human CD137 cells
Procedure, shortened: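 His-tagged VH molecules bound to CHO cells expressing human PD-1 or human CD137, with CHO parent cells as control, in PBS pH 7.4, 0.1% BSA, 0.05% sodium azide. Read by FMAT on Mirrorball (ex 488/640 nm); binding taken as FL2 median fluorescence intensity of FL5-gated events.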

[4] = target: T4, recombinant Fc-tagged ectodomain of human CD137 (Acro Biosystems 41B-H5258) (human, UniProt Q07011 24-186); assay: SPR, Biacore 8K, single-cycle kinetics; Fc-tagged ectodomain captured on Protein G chip; 1:1 model
T4 construct: Bought protein; not shown: Fc tag
Protocol: (§2) Binding of Humabody® VH constructs was measured using a single-cycle kinetics method using the BIAcore 8K instrument with 90 second sample injections with a sample concentration range of low nanomolar to high nanomolar. […] The Protein G sensor surface was regenerated with a 20 second injection of 10 mM Glycine buffer, pH 1.5 (GE Healthcare BR100354). Data were analysed using a 1:1 binding model in Biacore Insight Evaluation software, including Humabody® VH constructs with two PD-1 arms.

[5] = target: T5, recombinant Fc-tagged ectodomain of cynomolgus PD1 (Acro Biosystems PD1-C5254) (cynomolgus macaque, UniProt B0LAJ3 25-170); assay: as above
T5 construct: Bought protein; also called Cyno PD1; cynomolgus macaque PD1; not shown: Fc tag and any linker to it
Protocol: as §2

[6] = target: T6, recombinant Fc-tagged ectodomain of cynomolgus CD137 (R&D S9324-4b) (cynomolgus macaque, UniProt A9YYE7 24-186); assay: as above
T6 construct: Bought protein; also called Cyno CD137; cynomolgus macaque CD137; not shown: Fc tag and any linker to it
Protocol: as §2

[7] = target: T7, recombinant Fc-tagged ectodomain of human PD1 (Acro Biosystems PD1-H5257) (human, UniProt Q15116 25-170); assay: as above
T7 construct: Bought protein; not shown: Fc tag
Protocol: as §2

[8] = target: human CD137 expressed on cells (Jurkat human CD137 NF-kB luciferase reporter cells; human CD8+ T cells) (human, UniProt Q07011 24-255); assay: cell-based or functional assay

Kd [1]: 21.9 nM
koff [1]: 0.00267 s⁻¹
kon [1]: 122000 M⁻¹ s⁻¹
Kd [2]: 17.8 nM
koff [2]: 0.00214 s⁻¹
kon [2]: 120000 M⁻¹ s⁻¹
EC50 [3]: 1.35 nM
B1: 003BB172-E01-1 (VHH)
VHH: EVQLVESGGGLVQPGGSLRLSCAASGFTFSNYGMHWVRQAPGKGLEWVAVISNDGNTKTYADSVKGRFTISRDNSKNMLYLQMTSLRTEDTAVYYCAQDETTTVTASYYFDYWGQGTLVTVSS
notes: Human VH single domain antibody, monovalent

Kd [1]: 25.9 nM
koff [1]: 0.00159 s⁻¹
kon [1]: 61300 M⁻¹ s⁻¹
Kd [2]: 18.6 nM
koff [2]: 0.00137 s⁻¹
kon [2]: 73200 M⁻¹ s⁻¹
EC50 [3]: 1.74 nM
B2: 003BB172-E01-2 (VHH)
VHH: B1 VHH with G44R, M78T
notes: as for B1

Kd [1]: 24.8 nM
koff [1]: 0.00157 s⁻¹
kon [1]: 55300 M⁻¹ s⁻¹
Kd [2]: 24.5 nM
koff [2]: 0.00161 s⁻¹
kon [2]: 66000 M⁻¹ s⁻¹
EC50 [3]: 1.06 nM
B3: 003BB172-E01-3 (VHH)
VHH: B1 VHH with G44R, T84N
notes: as for B1

Kd [1]: 32.2 nM
koff [1]: 0.00216 s⁻¹
kon [1]: 67100 M⁻¹ s⁻¹
Kd [2]: 25.7 nM
koff [2]: 0.00184 s⁻¹
kon [2]: 71600 M⁻¹ s⁻¹
EC50 [3]: 1.33 nM
B4: 003BB172-E01-4 (VHH)
VHH: B1 VHH with M78T
notes: as for B1

Kd [4]: 0.471 nM
koff [4]: 0.000179 s⁻¹
kon [4]: 381000 M⁻¹ s⁻¹
Kd [5]: 102 nM
koff [5]: 0.0505 s⁻¹
kon [5]: 493000 M⁻¹ s⁻¹
Kd [6]: 0.728 nM
koff [6]: 0.000263 s⁻¹
kon [6]: 361000 M⁻¹ s⁻¹
Kd [7]: 87.6 nM
koff [7]: 0.0762 s⁻¹
kon [7]: 869000 M⁻¹ s⁻¹
Jurkat-CD137/CHO-PD-1 Reporter Assay EC50 [8]: 0.113 nM
B5: TPP-1245 CD137A-6GS-PDA2-6GS-HSA2 (bispecific antibody)
chain: EVQLVESGGGLVQPGGSLRLSCAASGFTLSNYWMNWVRQAPGKGLEWVANINQDGSERYYVDSVKGRFTISRDNAKNSLYLQMNSLRAEDTAVYYCARGGEGYGVDHYGLDVSGQGTTVTVSSGGGGSGGGGSGGGGSGGGGSGGGGSGGGGSEVQLVESGGGVVRPGGSLRLSCAASGFTFDDYAMSWVRQAPGKGLEWVSGITWNAGSTGYADSVKGRFTISRDNAKNSLYLQMNSLRAEDTALYYCVRDKYSYAWSYDDFDIWGQGTMVTVSSGGGGSGGGGSGGGGSGGGGSGGGGSGGGGSEVQLVESGGGLVKPGGSLRLSCAASGFTFSNYNMNWVRQAPGKGLEWVSSISSAGTHIYYADSVKGRFTISRDNAKNSLYLQMNSLRAEDTAVYYCARDPHSTGWYKDFDYWGQGTLVTVSS

Kd [4]: 0.295 nM
koff [4]: 9.85e-05 s⁻¹
kon [4]: 334000 M⁻¹ s⁻¹
Kd [5]: 16.9 nM
koff [5]: 0.00494 s⁻¹
kon [5]: 293000 M⁻¹ s⁻¹
Kd [6]: 0.543 nM
koff [6]: 0.00017 s⁻¹
kon [6]: 313000 M⁻¹ s⁻¹
Kd [7]: 7.77 nM
koff [7]: 0.00214 s⁻¹
kon [7]: 276000 M⁻¹ s⁻¹
Jurkat-CD137/CHO-PD-1 Reporter Assay EC50 [8]: 0.0583 nM
B6: TPP-1247 CD137A-6GS-HSA3-6GS-PD138G7(G109D) (bispecific antibody)
chain: EVQLVESGGGLVQPGGSLRLSCAASGFTLSNYWMNWVRQAPGKGLEWVANINQDGSERYYVDSVKGRFTISRDNAKNSLYLQMNSLRAEDTAVYYCARGGEGYGVDHYGLDVSGQGTTVTVSSGGGGSGGGGSGGGGSGGGGSGGGGSGGGGSEVQLLESGGGLVKPGGSLRLSCAASGFTVSSYTMNWVRQAPGKGLEWVSSISSSGRYIYYADSVKGRFTISRDNAKNSLYLQMNSLRAEDTAVYYCARDPRMVGNPHEFDIWGQGTMVTVSSGGGGSGGGGSGGGGSGGGGSGGGGSGGGGSEVQLVESGGGVVRPGGSLRLSCAASGFTFDDYAMSWVRQAPGKGLEWVSGITWNGGSTGYADSVKDRFTISRDNAKNSLYLQMNSLRAEDTALYYCVRDKYSYAWSYDDFDIWGQGTMVTVSS
